Experimental data reported in US20120172293A1 (Takeda / Millennium, published 2012).
Non-standard residues stand in square brackets, D forms with d. No end group written: not given here. *: point of attachment. Phe(4-NH2) = Nc1ccc(C[C@H](N)C(=O)O)cc1; Morpholinocarbonyl = O=C(N1CCOCC1)*; hArg = N=C(N)NCCCC[C@H](N)C(=O)O; tBuAla = CC(C)(C)C[C@H](N)C(=O)O; 4Pal = N[C@@H](Cc1ccncc1)C(=O)O; Cha = N[C@@H](CC1CCCCC1)C(=O)O; 4Amb = NCc1ccc(C(=O)O)cc1; Orn = NCCC[C@H](N)C(=O)O; Ac3c = NC1(C(=O)O)CC1; Aib = CC(C)(N)C(=O)O

T1: human Y2 receptor (human, UniProt P49146 1-381)
T1 sequence (looked up): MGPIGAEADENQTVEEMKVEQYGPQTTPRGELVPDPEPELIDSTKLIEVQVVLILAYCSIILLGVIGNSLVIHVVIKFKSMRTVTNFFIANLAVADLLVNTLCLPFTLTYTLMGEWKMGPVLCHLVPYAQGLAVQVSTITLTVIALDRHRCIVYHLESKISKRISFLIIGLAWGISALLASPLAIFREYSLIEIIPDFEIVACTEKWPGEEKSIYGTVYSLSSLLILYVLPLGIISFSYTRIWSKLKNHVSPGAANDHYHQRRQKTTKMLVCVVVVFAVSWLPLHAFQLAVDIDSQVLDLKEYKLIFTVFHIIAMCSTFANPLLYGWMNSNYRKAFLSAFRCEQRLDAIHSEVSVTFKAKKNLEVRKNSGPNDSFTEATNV


Legend:
[1] = target: T1, human Y2 receptor; test: cell-based or functional assay
[2] = target: T1, human Y2 receptor; test: RBA: [125I]-PYY displacement, hY2R/CHO membranes
Summary of the method: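 Bound radioligand was collected by filtration on PEI-treated GF/C filters, washed with Tris/MgCl₂/NaCl/CHAPS buffer pH 7.4, and counted by scintillation; IC₅₀ values were calculated.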

Row | Binder | GBA EC50 Ratio (vs PYY(3-36)), [35S]GTPγS [1] | IC50 Ratio (vs PYY(3-36)) [2]
1 | [4Amb]RAYINLIT[hArg]QRY-NH2 (N-terminus assumed; SMILES CC[C@H](C)[C@H](NC(=O)[C@H](Cc1ccc(O)cc1)NC(=O)[C@H](C)NC(=O)[C@H](CCCNC(=N)N)NC(=O)c1ccc(CN)cc1)C(=O)N[C@@H](CC(N)=O)C(=O)N[C@@H](CC(C)C)C(=O)N[C@H](C(=O)N[C@H](C(=O)N[C@@H](CCCCNC(=N)N)C(=O)N[C@@H](CCC(N)=O)C(=O)N[C@@H](CCCNC(=N)N)C(=O)N[C@@H](Cc1ccc(O)cc1)C(N)=O)[C@@H](C)O)[C@@H](C)CC, also called compound No. 11) [4-Aminomethylbenzoyl-[Ala26, Ile28,31, Har33]-PYY(25-36)] | 63 ratio | 260 ratio
2 | [4Amb]RAYINLITRQR[Phe(4-NH2)]-NH2 (N-terminus assumed; SMILES CC[C@H](C)[C@H](NC(=O)[C@H](Cc1ccc(O)cc1)NC(=O)[C@H](C)NC(=O)[C@H](CCCNC(=N)N)NC(=O)c1ccc(CN)cc1)C(=O)N[C@@H](CC(N)=O)C(=O)N[C@@H](CC(C)C)C(=O)N[C@H](C(=O)N[C@H](C(=O)N[C@@H](CCCNC(=N)N)C(=O)N[C@@H](CCC(N)=O)C(=O)N[C@@H](CCCNC(=N)N)C(=O)N[C@@H](Cc1ccc(N)cc1)C(N)=O)[C@@H](C)O)[C@@H](C)CC, also called compound No. 12) [4-Aminomethylbenzoyl-[Ala26, Ile28,31, Phe(4NH2)36]-PYY(25-36)] | 5 ratio | 12 ratio
3 | Morpholinocarbonyl-D[dP]RH[Cha][Cha]NL[Aib]TRQR[Cha]-NH2 (SMILES CC(C)C[C@H](NC(=O)[C@H](CC(N)=O)NC(=O)[C@H](CC1CCCCC1)NC(=O)[C@H](CC1CCCCC1)NC(=O)[C@H](Cc1c[nH]cn1)NC(=O)[C@H](CCCNC(=N)N)NC(=O)[C@H]1CCCN1C(=O)[C@H](CC(=O)O)NC(=O)N1CCOCC1)C(=O)NC(C)(C)C(=O)N[C@H](C(=O)N[C@@H](CCCNC(=N)N)C(=O)N[C@@H](CCC(N)=O)C(=O)N[C@@H](CCCNC(=N)N)C(=O)N[C@@H](CC1CCCCC1)C(N)=O)[C@@H](C)O, also called compound No. 173) [Morpholinocarbonyl-[Asp23, D-Pro24, Cha27,28,36, Aib31]-PYY(23-36)] | 1.4 ratio | 2.9 ratio
4 | Morpholinocarbonyl-S[dP]RH[Cha][tBuAla]NK[Aib]TRQR[Cha]-NH2 (SMILES C[C@@H](O)[C@H](NC(=O)C(C)(C)NC(=O)[C@H](CCCCN)NC(=O)[C@H](CC(N)=O)NC(=O)[C@H](CC(C)(C)C)NC(=O)[C@H](CC1CCCCC1)NC(=O)[C@H](Cc1c[nH]cn1)NC(=O)[C@H](CCCNC(=N)N)NC(=O)[C@H]1CCCN1C(=O)[C@H](CO)NC(=O)N1CCOCC1)C(=O)N[C@@H](CCCNC(=N)N)C(=O)N[C@@H](CCC(N)=O)C(=O)N[C@@H](CCCNC(=N)N)C(=O)N[C@@H](CC1CCCCC1)C(N)=O, also called compound No. 187) [Morpholinocarbonyl-[D-Pro24, Cha27,36, Leu(Me)28, Lys30, Aib31]-PYY(23-36)] | 0.84 ratio | 0.66 ratio
5 | Ac-S[dP]RH[Cha][Cha]NL[Ac3c]TRQR[Cha]-NH2 (SMILES CC(=O)N[C@@H](CO)C(=O)N1CCC[C@@H]1C(=O)N[C@@H](CCCNC(=N)N)C(=O)N[C@@H](Cc1c[nH]cn1)C(=O)N[C@@H](CC1CCCCC1)C(=O)N[C@@H](CC1CCCCC1)C(=O)N[C@@H](CC(N)=O)C(=O)N[C@@H](CC(C)C)C(=O)NC1(C(=O)N[C@H](C(=O)N[C@@H](CCCNC(=N)N)C(=O)N[C@@H](CCC(N)=O)C(=O)N[C@@H](CCCNC(=N)N)C(=O)N[C@@H](CC2CCCCC2)C(N)=O)[C@@H](C)O)CC1, also called compound No. 131) [Ac-[D-Pro24, Cha27,28,36, Acpc31]-PYY(23-36)] | 3.6 ratio | 7 ratio
6 | Ac-S[dP]RH[Cha][Cha]NL[Aib]TRQRY-NH2 (SMILES CC(=O)N[C@@H](CO)C(=O)N1CCC[C@@H]1C(=O)N[C@@H](CCCNC(=N)N)C(=O)N[C@@H](Cc1c[nH]cn1)C(=O)N[C@@H](CC1CCCCC1)C(=O)N[C@@H](CC1CCCCC1)C(=O)N[C@@H](CC(N)=O)C(=O)N[C@@H](CC(C)C)C(=O)NC(C)(C)C(=O)N[C@H](C(=O)N[C@@H](CCCNC(=N)N)C(=O)N[C@@H](CCC(N)=O)C(=O)N[C@@H](CCCNC(=N)N)C(=O)N[C@@H](Cc1ccc(O)cc1)C(N)=O)[C@@H](C)O, also called compound No. 142) [Ac-[D-Pro24, Cha27,28, Aib31]-PYY(23-36)] | 1.1 ratio | 3.2 ratio
7 | Ac-S[dP]RH[Cha][Cha]NL[Aib]TRQRF-NH2 (SMILES CC(=O)N[C@@H](CO)C(=O)N1CCC[C@@H]1C(=O)N[C@@H](CCCNC(=N)N)C(=O)N[C@@H](Cc1c[nH]cn1)C(=O)N[C@@H](CC1CCCCC1)C(=O)N[C@@H](CC1CCCCC1)C(=O)N[C@@H](CC(N)=O)C(=O)N[C@@H](CC(C)C)C(=O)NC(C)(C)C(=O)N[C@H](C(=O)N[C@@H](CCCNC(=N)N)C(=O)N[C@@H](CCC(N)=O)C(=O)N[C@@H](CCCNC(=N)N)C(=O)N[C@@H](Cc1ccccc1)C(N)=O)[C@@H](C)O, also called compound No. 143) [Ac-[D-Pro24, Cha27,28, Aib31, Phe36]-PYY(23-36)] | 0.85 ratio | 2.9 ratio
8 | Ac-[dY]AS[dP]RH[Cha][Cha]NL[Aib]TRQR[Cha]-NH2 (SMILES CC(=O)N[C@H](Cc1ccc(O)cc1)C(=O)N[C@@H](C)C(=O)N[C@@H](CO)C(=O)N1CCC[C@@H]1C(=O)N[C@@H](CCCNC(=N)N)C(=O)N[C@@H](Cc1c[nH]cn1)C(=O)N[C@@H](CC1CCCCC1)C(=O)N[C@@H](CC1CCCCC1)C(=O)N[C@@H](CC(N)=O)C(=O)N[C@@H](CC(C)C)C(=O)NC(C)(C)C(=O)N[C@H](C(=O)N[C@@H](CCCNC(=N)N)C(=O)N[C@@H](CCC(N)=O)C(=O)N[C@@H](CCCNC(=N)N)C(=O)N[C@@H](CC1CCCCC1)C(N)=O)[C@@H](C)O, also called compound No. 121) [Ac-[D-Tyr21, D-Pro24, Cha27,28,36, Aib31]-PYY(21-36)] | 1.3 ratio | 1.2 ratio

The next lines start with the values.

Row | GBA EC50 Ratio (vs PYY(3-36)), [35S]GTPγS [1] | IC50 Ratio (vs PYY(3-36)) [2] | Binder
9 | 14 ratio | 17 ratio | Ac-GLRH[Cha][Cha]NL[Aib]TRQR[Cha]-NH2 (also: Gly1-Leu2 amide bond replaced by (E)-CH=CH alkene, -CONH- bond between Gly23 and Leu24 is substituted by (E) type alkene; also called compound No. 122) [Ac-[Gly23-ψ[(E)-CH═CH]-Leu24, Cha27,28,36, Aib31]-PYY(23-36)]
10 | 18 ratio | 39 ratio | [4Amb][Orn]AYINLITRQRY-NH2 (N-terminus assumed; SMILES CC[C@H](C)[C@H](NC(=O)[C@H](Cc1ccc(O)cc1)NC(=O)[C@H](C)NC(=O)[C@H](CCCN)NC(=O)c1ccc(CN)cc1)C(=O)N[C@@H](CC(N)=O)C(=O)N[C@@H](CC(C)C)C(=O)N[C@H](C(=O)N[C@H](C(=O)N[C@@H](CCCNC(=N)N)C(=O)N[C@@H](CCC(N)=O)C(=O)N[C@@H](CCCNC(=N)N)C(=O)N[C@@H](Cc1ccc(O)cc1)C(N)=O)[C@@H](C)O)[C@@H](C)CC, also called compound No. 10) [4-Aminomethylbenzoyl-[Orn25, Ala26, Ile28,31]-PYY(25-36)]
11 | 1.4 ratio | 1.4 ratio | Morpholinocarbonyl-E[dP]RH[Cha][Cha]NK[Aib]TRQR[Cha]-NH2 (SMILES C[C@@H](O)[C@H](NC(=O)C(C)(C)NC(=O)[C@H](CCCCN)NC(=O)[C@H](CC(N)=O)NC(=O)[C@H](CC1CCCCC1)NC(=O)[C@H](CC1CCCCC1)NC(=O)[C@H](Cc1c[nH]cn1)NC(=O)[C@H](CCCNC(=N)N)NC(=O)[C@H]1CCCN1C(=O)[C@H](CCC(=O)O)NC(=O)N1CCOCC1)C(=O)N[C@@H](CCCNC(=N)N)C(=O)N[C@@H](CCC(N)=O)C(=O)N[C@@H](CCCNC(=N)N)C(=O)N[C@@H](CC1CCCCC1)C(N)=O, also called compound No. 191) [Morpholinocarbonyl-[Glu23, D-Pro24, Cha27,28,36, Lys30, Aib31]-PYY(23-36)]
12 | 1 ratio | 1.9 ratio | Morpholinocarbonyl-E[dP]RH[Cha][Cha]NL[Aib]TRQR[Cha]-NH2 (SMILES CC(C)C[C@H](NC(=O)[C@H](CC(N)=O)NC(=O)[C@H](CC1CCCCC1)NC(=O)[C@H](CC1CCCCC1)NC(=O)[C@H](Cc1c[nH]cn1)NC(=O)[C@H](CCCNC(=N)N)NC(=O)[C@H]1CCCN1C(=O)[C@H](CCC(=O)O)NC(=O)N1CCOCC1)C(=O)NC(C)(C)C(=O)N[C@H](C(=O)N[C@@H](CCCNC(=N)N)C(=O)N[C@@H](CCC(N)=O)C(=O)N[C@@H](CCCNC(=N)N)C(=O)N[C@@H](CC1CCCCC1)C(N)=O)[C@@H](C)O, also called compound No. 174) [Morpholinocarbonyl-[Glu23, D-Pro24, Cha27,28,36, Aib31]-PYY(23-36)]
13 | 1.2 ratio | 2.2 ratio | Ac-E[dP]R[4Pal][Cha]YNK[Aib]TRQR[Cha]-NH2 (SMILES CC(=O)N[C@@H](CCC(=O)O)C(=O)N1CCC[C@@H]1C(=O)N[C@@H](CCCNC(=N)N)C(=O)N[C@@H](Cc1ccncc1)C(=O)N[C@@H](CC1CCCCC1)C(=O)N[C@@H](Cc1ccc(O)cc1)C(=O)N[C@@H](CC(N)=O)C(=O)N[C@@H](CCCCN)C(=O)NC(C)(C)C(=O)N[C@H](C(=O)N[C@@H](CCCNC(=N)N)C(=O)N[C@@H](CCC(N)=O)C(=O)N[C@@H](CCCNC(=N)N)C(=O)N[C@@H](CC1CCCCC1)C(N)=O)[C@@H](C)O, also called compound No. 139) [Ac-[Glu23, D-Pro24, Pya(4)26, Cha27,36, Tyr28, Lys30, Aib31]-PYY(23-36)]
